Source: patent publication US10648979B2, “Molecular probes for detecting gram-negative bacteria in vitro and in vivo” (priority 2014, dated 2020)
Read-outs that look alike come from different tables or passages of the source. Bridge positions count the residues as written; N and C are the ends. Square brackets hold non-standard residues; d marks the D form. Peptide text beside a SMILES is read from it. * marks the point of attachment. ξ: configuration not given here. X1 = CN(C)c1ccc2c(c1)Oc1cc(N(C)C)ccc1C21OC(=O)c2ccc(C(=O)*)cc21; MethylRed = CN(C)c1ccc(/N=N/c2ccccc2C(=O)*)cc1; NBD = O=[N+]([O-])c1ccc(*)c2nonc12; dDab = NCC[C@@H](N)C(=O)O; Dab = NCC[C@H](N)C(=O)O; AEEA = NCCOCCOCC(=O)O; ξDab = NCCC(N)C(=O)O; ξK = NCCCCC(N)C(=O)O; ξV = CC(C)C(N)C(=O)O; ξP = O=C(O)C1CCCN1; ξA = CC(N)C(=O)O

Assays:
[1] = Rodent single dose intratracheal toxicity assessment; format: in vivo, Mice; set-up: Creatinine / Bilirubin / Albumin: unit not given here
[2] = Stability in saline or BALF from patients with Acute Lung Injury (MALDI-TOF / FTMS); conditions: incubated for 30 minutes
Procedure: FIG. 16: NBD-UBIdend is stable in ALI BALF. […] NBD-PMX is stable in ALI BALF.
Secondly we assessed stability of the probes in broncholalveolar lavage fluid (BALF) from patients with Acute Lung Injury (ALI) by Fourier Transform Mass Spectrometry (FTMS) and Matrix-Assisted Laser Desorption/Ionization Time-of-Flight Mass Spectrometry (MALDI-TOF MS) analysis. NBD-UBINle, NBD-UBIdend and NBD-PMX were incubated for 30 minutes with BALF (FIG. 16).
In vitro labelling was assessed on benchtop confocal in the presence of compound with bacteria and labelling was compared to NBD-UBINle which served as a reference control for bacterial labelling. […] For the ex vivo and in vivo ovine lung experiments each compound was assessed in a control lung segment (instilled with 2 ml PBS) or a bacterial segment (instilled with 2 ml of 2 optical density of bacteria). Following bacterial instillation, the compound was administered to the segment of interest and this was imaged by probe based confocal laser endomicroscopy (FCFM).
Probe was added to saline or pooled BALF from patients with ALI incubated for 30 minutes. A ZipTip (C-18, 0.2 μL) with 5 μL MeCN (with 0.1% TFA as an additive) followed by 20 μL of H2O was washed. The ZipTip was loaded with the sample, washed and eluted into 5 μL of 80% aq. MeCN (with 0.1% TFA as an additive). The sample was analysed by MALDI-TOF (PerSeptive Biosystems Voyager DETMSTR MALDI-TOF mass spectrometer (Applied Biosystems, Foster City, Calif.)).

human erythrocytes = test: Haemolysis assay; conditions: up to 100 μM; 0.2% Triton-X = 100%
Procedure: Positive control was 0.2% Triton-X and values corrected to represent 100% haemolysis for Triton-X.
Erythrocytes were isolated from freshly drawn, anticoagulated human blood and resuspended to 20 vol % in PBS (pH 7.4). In a 96-well microtiter plate, 100 μl of erythrocyte suspension was added to 100 μl of NLLP solution in PBS (prepared by 1:2 serial dilutions) or 100 μl of PBS in the case of negative controls. One-hundred percent haemolysis wells contained 100 μl of red cell suspension with 100 μl of 0.2 vol % Triton X-100. The plate was incubated for 1 h at 37° C., and then each well was diluted with 150 μl of PBS. The plate was then centrifuged at 1,200 g for 15 min, 100 μl of the supernatant from each well was transferred to a fresh microtiter plate, and A350 was measured. Percentage of haemolysis was determined as (A−A0)/(Atotal−A0)×100, where A is the absorbance of the test well, A0 the absorbance of the negative controls, and Atotal the absorbance of 100% haemolysis wells, all at 350 nm on a Biotek plate reader.

[3] = tested on: Pseudomonas aueriginosa (PA)
Text: (§1) FIG. 3A: Elastase dependant bacterial labelling scheme. The fluorophore on the bacterial binding component is quenched by a different fluorophore of a longer wavelength meaning that no fluorescence is seen upon binding to bacteria. Cleavage of the elastase specific sequence AAPV liberates the bacterial binding component (PV-NBD-UBI) from the quencher (TAMRA). TAMRA reports the presence of activated neutrophils by endocytic uptake.
(§2) FIG. 3B: Elastase dependant bacterial labelling in vitro.
In a second example, the probe comprises carboxytetramethylrhodamine (TAMRA, acting as a fluorescent quencher) connected to NBD and polymyxin (acting as the probe element) via the peptide sequence AAPV (acting as the linker). Accordingly, the NBD fluorescence is quenched by the TAMRA to give rise to a fluorescent signal from TAMRA (i.e. the TAMRA is accepting the energy absorbed by the NBD and is itself fluorescing, TAMRA and NBD are acting as a FRET pair). Accordingly, whether or not the polymyxin has bound to any bacteria that may be present, only a signal from the TAMRA is observed.

elastase = elastase (Homo sapiens, UniProt P08246); conditions: ex 525, Em 580
Chain of elastase (P08246 30-247 limits assumed): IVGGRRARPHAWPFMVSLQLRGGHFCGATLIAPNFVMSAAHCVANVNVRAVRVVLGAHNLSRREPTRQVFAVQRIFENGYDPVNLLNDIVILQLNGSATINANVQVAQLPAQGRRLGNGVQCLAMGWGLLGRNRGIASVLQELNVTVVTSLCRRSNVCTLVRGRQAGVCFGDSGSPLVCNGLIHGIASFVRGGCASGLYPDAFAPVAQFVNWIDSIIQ

activated neutrophils = conditions: TAMRA signal (red)
Text: as §1, §2

[4] = tested on: Methicillin sensitive Staphylococcus aureus (MSSA); test: Elastase dependant bacterial labelling in co-culture of bacteria and isolated human neutrophils (confocal); format: cell-based
Text: FIG. 2A: Elastase dependant bacterial labelling scheme.
FIG. 2B: Elastase dependant bacterial labelling in vitro.
A first example of elastase sensitive probes (shown schematically in FIG. 2A) comprises methyl red (acting as a dark quencher) connected via the peptide sequence AAPV (acting as the linker) to 7-nitrobenz-2-oxa-1,3-diazole (NBD) and the ubiquicidin fragment UBI29-41 (together acting as the probe element). Accordingly, the NBD fluorescence is quenched by the methyl red and no fluorescent signal will be observed (i.e. the methyl red and NBD are acting as a FRET pair) and therefore, whether or not the probe is bound to any bacteria that may be present in the target area via UBI29-41, no signal is observed using confocal microscopy.
When the probe is in the presence of human neutrophil elastase (HNE), such as in inflamed tissue, HNE cleaves the peptide sequence of the linker, to thereby free the probe element from the methyl red quencher. Accordingly, the NBD fluorophore is no longer quenched and produces a fluorescent signal. In addition, due to the environmental sensitivity of the NBD, the signal produced is greatly amplified if the NBD is in a hydrophobic environment, such as within a cell membrane.

`CCCC[C@H](NC(=O)[C@H](CCCNC(=N)N)NC(=O)[C@H](CCCNC(=N)N)NC(=O)[C@H](CCCCN)NC(=O)[C@H](C)NC(=O)[C@H](CCCNC(=N)N)NC(=O)CNC(=O)[C@@H](NC(=O)COCCOCCNc1ccc([N+](=O)[O-])c2nonc12)[C@@H](C)O)C(=O)N[C@@H](CCC(N)=O)C(=O)N[C@@H](Cc1ccc(O)cc1)C(=O)N[C@@H](CC(N)=O)C(=O)N[C@@H](CCCNC(=N)N)C(=O)N[C@@H](CCCNC(=N)N)C(=O)NCCOCCOCC(=O)NCCCOCC(COCCCNC(=O)COCCOCCNC(=O)[C@H](CCCNC(=N)N)NC(=O)[C@H](CCCNC(=N)N)NC(=O)[C@H](CC(N)=O)NC(=O)[C@H](Cc1ccc(O)cc1)NC(=O)[C@H](CCC(N)=O)NC(=O)[C@H](CCCC)NC(=O)[C@H](CCCNC(=N)N)NC(=O)[C@H](CCCNC(=N)N)NC(=O)[C@H](CCCCN)NC(=O)[C@H](C)NC(=O)[C@H](CCCNC(=N)N)NC(=O)CNC(=O)[C@@H](NC(=O)COCCOCCNc1ccc([N+](=O)[O-])c2nonc12)[C@@H](C)O)(COCCCNC(=O)COCCOCCNC(=O)[C@H](CCCNC(=N)N)NC(=O)[C@H](CCCNC(=N)N)NC(=O)[C@H](CC(N)=O)NC(=O)[C@H](Cc1ccc(O)cc1)NC(=O)[C@H](CCC(N)=O)NC(=O)[C@H](CCCC)NC(=O)[C@H](CCCNC(=N)N)NC(=O)[C@H](CCCNC(=N)N)NC(=O)[C@H](CCCCN)NC(=O)[C@H](C)NC(=O)[C@H](CCCNC(=N)N)NC(=O)CNC(=O)[C@@H](NC(=O)COCCOCCNc1ccc([N+](=O)[O-])c2nonc12)[C@@H](C)O)NC(N)=O` (some centres unmarked) [NBD-UBIdend] showed an ALP ([1]; 48 hours) of 222.3 ± 80.3 u/l, an ALT ([1]; 48 hours) of 24.0 ± 1.2 u/l and an Albumin ([1]; 48 hours) of 22.3 ± 1.8. For the same compound, the BALF ([1]; 48 hours) was 477.1 ± 150.6 Cells/ul, the Bilirubin ([1]; 48 hours) was 2 ± 0 and the Creatinine ([1]; 48 hours) was 8.3 ± 0.7. For the same compound, the “Cytospin (% of Neutrophils)” value ([1]; 48 hours) was 3.6%, the “Cytospin (% of Red Blood Cells)” value ([1]; 48 hours) was 0% and the PenH value ([1]; 48 hours) was 0.5 ± 0.06. For the same compound, the “Cytospin (% of Mononuclear cells)” value ([1]; 48 hours, single intratracheal 100 μg/25 g mouse) was 96.4%, the ALP ([1]; 14 days) was 227.0 ± 27.1 u/l and the ALT ([1]; 14 days) was 28.3 ± 1.9 u/l. For the same compound, the Albumin ([1]; 14 days) was 25.0 ± 1.2, the BALF ([1]; 14 days) was 342.7 ± 6.5 Cells/ul and the Bilirubin ([1]; 14 days) was 2 ± 0. The Creatinine ([1]; 14 days) was 9.0 ± 1.5, the “Cytospin (% of Neutrophils)” value ([1]; 14 days) was 0% and the “Cytospin (% of Red Blood Cells)” value ([1]; 14 days) was 0%. The PenH value ([1]; 14 days) was 0.5 ± 0.04, the “Cytospin (% of Mononuclear cells)” value ([1]; 14 days, single intratracheal 100 μg/25 g mouse) was 100% and the “organ toxicity (histology)” value ([1]; single instillation, 48 hours and 14 days, compared to PBS control) was “no organ toxicity”. The toxicity ([1]; single intratracheal 100 μg/25 g mouse, 48 hours and 14 days) was “no toxicity”, the “stability in ALI BALF” value [2] was “demonstrate stability” and the stability in saline [2] was “readily identified in both saline and BALF incubated samples”. For the same compound, the red cell haemolysis (human erythrocytes) was “no red cell haemolysis”.
In the case of `CC(C)C[C@@H]1NC(=O)[C@@H](Cc2ccccc2)NC(=O)[C@@H](CCN)NC(=O)C(NC(=O)[C@H](CCN)NC(=O)[C@@H](NC(=O)COCCOCCNC(=O)C(CCCCNc2ccc([N+](=O)[O-])c3nonc23)NC(=O)C(NC(=O)C2CCCN2C(=O)C(C)NC(=O)C(C)NC(=O)c2ccc3c(c2)C2(OC3=O)c3ccc(N(C)C)cc3Oc3cc(N(C)C)ccc32)C(C)C)[C@@H](C)O)CCNC(=O)[C@@H]([C@H](C)O)NC(=O)[C@H](CCN)NC(=O)[C@H](CCN)NC1=O` (some centres unmarked) [TAMRA-AAPV-NBD-PMX] (X1-[ξA][ξA][ξP][ξV][ξK](NBD)[AEEA]T[Dab][ξDab][dDab][dF]L[Dab][Dab][dT]; lactam 9-C), the bacterial labelling ([3]; activated neutrophils, NBD signal (green)) is reported as “bacterial labelling (shown in green) in an elastase dependent manner”, the bacterial labelling ([3]; unactivated neutrophils) is reported as “no labelling in the presence of unactivated neutrophils” and the “fluorescence of TAMRA following cleavage, with elastase inhibitor” value (elastase; elastase inhibitor) is reported as “inhibited with an elastase inhibitor”. For the same compound, the “fluorescence of TAMRA following cleavage” value (elastase; with elastase) was “increase in fluorescence of TAMRA-AA (cleaved compound) compared to TAMRA-AAPV-NBD-PMX in an elastase dependent manner” and the “labelling of activated neutrophils” value (activated neutrophils) was “labelling of activated neutrophils (shown in red) in an elastase independent manner”.
In the case of `CSCCC(NC(=O)C(CCCNC(=N)N)NC(=O)C(CCCNC(=N)N)NC(=O)C(CCCCN)NC(=O)C(C)NC(=O)C(CCCNC(=N)N)NC(=O)CNC(=O)C(NC(=O)COCCOCCNC(=O)C(CCCCNc1ccc([N+](=O)[O-])c2nonc12)NC(=O)C(NC(=O)C1CCCN1C(=O)C(C)NC(=O)C(C)NC(=O)c1ccccc1/N=N/c1ccc(N(C)C)cc1)C(C)C)C(C)O)C(=O)NC(CCC(N)=O)C(=O)NC(Cc1ccc(O)cc1)C(=O)NC(CC(N)=O)C(=O)NC(CCCNC(=N)N)C(=O)NC(CCCNC(=N)N)C(N)=O` (centres unmarked) [Example 1] (MethylRed-AAPVK(NBD)[AEEA]TGRAKRRMQYNRR-NH2; configuration not given here), the “bacterial labelling in co-culture of bacteria and neutrophils” value ([4]; confocal, neutrophil derived HNE present) is reported as “ability of the probe to be cleaved by neutrophil derived HNE and to label bacteria” and the “bacterial labelling with elastase inhibitor” value ([4]; elastase inhibitor sivelestat added to the medium) is reported as “no labelling was observed”.
